The values that follow come from the supplement of paper PMC9112550, “Optimization of the antimicrobial peptide Bac7 by deep mutational scanning” (BMC Biology, 2022).
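Further: peptides expressed intracellularly from a pBAD plasmid library in pooled LB shake-flask culture, induced with 0.3% L-arabinose, DNA abundance read by NGS, three biological replicates, DESeq2 with apeglm shrinkage.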

The test system of the data set is Escherichia coli TOP10. Put plainly: shrunken log2 fold change of peptide-encoding DNA abundance (4.5 h post-induction vs induction); higher = less antimicrobial activity (less host growth inhibition). To be noted: time post-induction: 4.5 h; library: site-saturation at positions 5, 18, 19, 20.
With RRIRKRPPRLPRPRPRPMDVPRP, the “shrunken log2 fold change” value amounted to 0.0608.

RRIRERPPRLPRPRPRPNTTPRP: the “shrunken log2 fold change” value is 0.123.

On to RRIRGRPPRLPRPRPRPLVHPRP, for which the “shrunken log2 fold change” value is -0.0335.

Take RRIRSRPPRLPRPRPRPLVSPRP: the “shrunken log2 fold change” value stood at 0.208.

Turning to RRIRKRPPRLPRPRPRPHQRPRP, the “shrunken log2 fold change” value is -0.0795.

With RRIRKRPPRLPRPRPRPFKEPRP, the “shrunken log2 fold change” value is -0.0549.

Regarding RRIRLRPPRLPRPRPRPMLMPRP, the “shrunken log2 fold change” value was -0.177.

For RRIRQRPPRLPRPRPRPIRAPRP, the “shrunken log2 fold change” value came to 0.0231.

For the sequence RRIRPRPPRLPRPRPRPRPEPRP, the “shrunken log2 fold change” value worked out at 0.373.

As to RRIRGRPPRLPRPRPRPCWPPRP, the “shrunken log2 fold change” value amounted to 0.455.

On to RRIRIRPPRLPRPRPRPWIIPRP, for which the “shrunken log2 fold change” value was -0.207.

As to RRIRCRPPRLPRPRPRPEWNPRP, the “shrunken log2 fold change” value is 0.202.

With RRIRRRPPRLPRPRPRPHRKPRP, the “shrunken log2 fold change” value is -0.247.

Take RRIRWRPPRLPRPRPRPGNYPRP: the “shrunken log2 fold change” value is -0.00177.

Consider RRIRWRPPRLPRPRPRPVCQPRP, for which the “shrunken log2 fold change” value was -0.0154.

On to RRIRLRPPRLPRPRPRPRRHPRP, for which the “shrunken log2 fold change” value turned out to be 0.214.

As for RRIRHRPPRLPRPRPRPRRKPRP, the “shrunken log2 fold change” value is 0.0896.

In the case of RRIRGRPPRLPRPRPRPQDRPRP, the “shrunken log2 fold change” value was 0.297.

As for RRIRDRPPRLPRPRPRPVGPPRP, the “shrunken log2 fold change” value was -0.286.

For the sequence RRIRARPPRLPRPRPRPWAGPRP, the “shrunken log2 fold change” value stood at 0.233.

As to RRIRQRPPRLPRPRPRPKDYPRP, the “shrunken log2 fold change” value is -0.756.

On to RRIRDRPPRLPRPRPRPIMLPRP, for which the “shrunken log2 fold change” value was -0.0957.

On to RRIRCRPPRLPRPRPRPEDGPRP, for which the “shrunken log2 fold change” value was -0.0134.

Take RRIRDRPPRLPRPRPRPCIDPRP: the “shrunken log2 fold change” value was 0.0188.

With RRIRTRPPRLPRPRPRPPKLPRP, the “shrunken log2 fold change” value was -0.0543.

For the sequence RRIRDRPPRLPRPRPRPMCCPRP, the “shrunken log2 fold change” value was found to be 0.0249.

Consider RRIRIRPPRLPRPRPRPHRHPRP, for which the “shrunken log2 fold change” value is -0.364.

Consider RRIRVRPPRLPRPRPRPSFDPRP, for which the “shrunken log2 fold change” value was -0.269.

Take RRIRFRPPRLPRPRPRPDWVPRP: the “shrunken log2 fold change” value was 0.0788.

For RRIRWRPPRLPRPRPRPDTDPRP, the “shrunken log2 fold change” value came to 0.225.

With RRIRKRPPRLPRPRPRPVTGPRP, the “shrunken log2 fold change” value was -0.0771.

Turning to RRIRWRPPRLPRPRPRPTQSPRP, the “shrunken log2 fold change” value came out at 0.472.

As for RRIRTRPPRLPRPRPRPLKAPRP, the “shrunken log2 fold change” value was found to be 0.0363.

In the case of RRIRIRPPRLPRPRPRPKKMPRP, the “shrunken log2 fold change” value was 0.222.

Consider RRIRYRPPRLPRPRPRPTGFPRP, for which the “shrunken log2 fold change” value was -0.0281.

With RRIRNRPPRLPRPRPRPGLVPRP, the “shrunken log2 fold change” value is 0.171.

RRIRIRPPRLPRPRPRPVMPPRP: the “shrunken log2 fold change” value is -0.142.

RRIRVRPPRLPRPRPRPCAAPRP: the “shrunken log2 fold change” value is 0.121.

As for RRIRGRPPRLPRPRPRPCWLPRP, the “shrunken log2 fold change” value is -0.0298.

For RRIRMRPPRLPRPRPRPYGQPRP, the “shrunken log2 fold change” value was 0.0303.

With RRIRSRPPRLPRPRPRPDSMPRP, the “shrunken log2 fold change” value was -0.339.

RRIRQRPPRLPRPRPRPLCDPRP: the “shrunken log2 fold change” value was -0.131.

For the sequence RRIRTRPPRLPRPRPRPCMYPRP, the “shrunken log2 fold change” value is -0.183.

As to RRIRPRPPRLPRPRPRPLQRPRP, the “shrunken log2 fold change” value was 0.395.

In the case of RRIRERPPRLPRPRPRPFESPRP, the “shrunken log2 fold change” value was found to be 0.00731.

With RRIRTRPPRLPRPRPRPPPIPRP, the “shrunken log2 fold change” value was 0.451.

Consider RRIRQRPPRLPRPRPRPPKAPRP, for which the “shrunken log2 fold change” value is -0.058.

Take RRIRCRPPRLPRPRPRPMGMPRP: the “shrunken log2 fold change” value was -0.184.

Consider RRIRWRPPRLPRPRPRPTACPRP, for which the “shrunken log2 fold change” value worked out at 0.317.

Turning to RRIRARPPRLPRPRPRPCPNPRP, the “shrunken log2 fold change” value is -0.0809.

Consider RRIRGRPPRLPRPRPRPKVCPRP, for which the “shrunken log2 fold change” value is 0.232.

On to RRIRSRPPRLPRPRPRPWKVPRP, for which the “shrunken log2 fold change” value is -0.173.

For RRIRIRPPRLPRPRPRPTVCPRP, the “shrunken log2 fold change” value is 0.312.

Take RRIRCRPPRLPRPRPRPQSKPRP: the “shrunken log2 fold change” value was -0.448.

Consider RRIRFRPPRLPRPRPRPRCMPRP, for which the “shrunken log2 fold change” value is -0.124.

Turning to RRIRTRPPRLPRPRPRPVYCPRP, the “shrunken log2 fold change” value is -0.301.

As for RRIRFRPPRLPRPRPRPDHWPRP, the “shrunken log2 fold change” value is -0.00426.

Take RRIRHRPPRLPRPRPRPEDKPRP: the “shrunken log2 fold change” value is -0.0488.

Consider RRIRCRPPRLPRPRPRPDTCPRP, for which the “shrunken log2 fold change” value is -0.0965.

With RRIRYRPPRLPRPRPRPTWKPRP, the “shrunken log2 fold change” value was -0.333.

In the case of RRIRGRPPRLPRPRPRPMFTPRP, the “shrunken log2 fold change” value amounted to 0.522.

With RRIRIRPPRLPRPRPRPMCAPRP, the “shrunken log2 fold change” value is -0.127.

Regarding RRIRLRPPRLPRPRPRPHGIPRP, the “shrunken log2 fold change” value is -0.017.

As to RRIRQRPPRLPRPRPRPRRDPRP, the “shrunken log2 fold change” value stood at 0.308.

For the sequence RRIRIRPPRLPRPRPRPHTKPRP, the “shrunken log2 fold change” value is -1.68.

Regarding RRIRLRPPRLPRPRPRPIQHPRP, the “shrunken log2 fold change” value is -0.213.

With RRIRERPPRLPRPRPRPCTEPRP, the “shrunken log2 fold change” value is -0.196.

On to RRIRRRPPRLPRPRPRPVQPPRP, for which the “shrunken log2 fold change” value was 0.669.

Take RRIRRRPPRLPRPRPRPSGYPRP: the “shrunken log2 fold change” value was -0.201.

On to RRIRARPPRLPRPRPRPVTVPRP, for which the “shrunken log2 fold change” value is 2.71.

In the case of RRIRTRPPRLPRPRPRPMWLPRP, the “shrunken log2 fold change” value is -0.0194.

Take RRIRTRPPRLPRPRPRPMFTPRP: the “shrunken log2 fold change” value is -0.253.

In the case of RRIRRRPPRLPRPRPRPMMDPRP, the “shrunken log2 fold change” value is -0.00156.

For the sequence RRIRLRPPRLPRPRPRPFTYPRP, the “shrunken log2 fold change” value was -0.0906.

With RRIRVRPPRLPRPRPRPMHTPRP, the “shrunken log2 fold change” value is 0.0814.

RRIRVRPPRLPRPRPRPHLFPRP: the “shrunken log2 fold change” value came out at 0.461.

Regarding RRIRYRPPRLPRPRPRPVIFPRP, the “shrunken log2 fold change” value was -0.331.

With RRIRARPPRLPRPRPRPKSMPRP, the “shrunken log2 fold change” value was 0.0164.

As for RRIRYRPPRLPRPRPRPETKPRP, the “shrunken log2 fold change” value was -0.485.

For RRIRMRPPRLPRPRPRPHHGPRP, the “shrunken log2 fold change” value is -0.762.

Consider RRIRCRPPRLPRPRPRPQADPRP, for which the “shrunken log2 fold change” value stood at 0.0688.

For the sequence RRIRGRPPRLPRPRPRPLFQPRP, the “shrunken log2 fold change” value stood at 0.266.

Regarding RRIRIRPPRLPRPRPRPNDDPRP, the “shrunken log2 fold change” value was -0.0364.

As to RRIRYRPPRLPRPRPRPVCKPRP, the “shrunken log2 fold change” value is -1.41.

Regarding RRIRVRPPRLPRPRPRPCGLPRP, the “shrunken log2 fold change” value was -0.173.

For the sequence RRIRKRPPRLPRPRPRPYPDPRP, the “shrunken log2 fold change” value is -0.175.

In the case of RRIRPRPPRLPRPRPRPCEAPRP, the “shrunken log2 fold change” value is 0.0756.

As for RRIRIRPPRLPRPRPRPHTHPRP, the “shrunken log2 fold change” value is -0.92.

Turning to RRIRLRPPRLPRPRPRPARHPRP, the “shrunken log2 fold change” value was found to be 0.148.

Turning to RRIRNRPPRLPRPRPRPFGKPRP, the “shrunken log2 fold change” value was -0.0788.

As to RRIRHRPPRLPRPRPRPYHGPRP, the “shrunken log2 fold change” value is -0.0161.

In the case of RRIRTRPPRLPRPRPRPDPFPRP, the “shrunken log2 fold change” value is -0.0199.

With RRIRDRPPRLPRPRPRPVCNPRP, the “shrunken log2 fold change” value amounted to 0.861.

For RRIRMRPPRLPRPRPRPTWRPRP, the “shrunken log2 fold change” value was found to be 0.894.

In the case of RRIRIRPPRLPRPRPRPDSEPRP, the “shrunken log2 fold change” value was found to be 0.0636.

Regarding RRIRGRPPRLPRPRPRPWLSPRP, the “shrunken log2 fold change” value was -0.0504.

Take RRIRNRPPRLPRPRPRPTMLPRP: the “shrunken log2 fold change” value is -0.241.

Take RRIRGRPPRLPRPRPRPMFGPRP: the “shrunken log2 fold change” value turned out to be 0.39.

Consider RRIRMRPPRLPRPRPRPQLAPRP, for which the “shrunken log2 fold change” value worked out at 0.598.

RRIRMRPPRLPRPRPRPMWRPRP: the “shrunken log2 fold change” value was 0.00628.

With RRIRRRPPRLPRPRPRPELMPRP, the “shrunken log2 fold change” value was determined as 0.0537.

Turning to RRIRYRPPRLPRPRPRPTIYPRP, the “shrunken log2 fold change” value was -0.939.

For RRIRWRPPRLPRPRPRPHYEPRP, the “shrunken log2 fold change” value is -0.209.

In the case of RRIRCRPPRLPRPRPRPKAVPRP, the “shrunken log2 fold change” value is 0.564.

Turning to RRIRTRPPRLPRPRPRPSTYPRP, the “shrunken log2 fold change” value is -0.4.

For RRIRCRPPRLPRPRPRPGGWPRP, the “shrunken log2 fold change” value stood at 0.656.

As for RRIRARPPRLPRPRPRPKNSPRP, the “shrunken log2 fold change” value is -0.0129.

Regarding RRIRERPPRLPRPRPRPNENPRP, the “shrunken log2 fold change” value is -0.111.

Consider RRIRTRPPRLPRPRPRPDTAPRP, for which the “shrunken log2 fold change” value came to 0.0677.

Turning to RRIRIRPPRLPRPRPRPLRNPRP, the “shrunken log2 fold change” value is -0.0491.

As to RRIRFRPPRLPRPRPRPWEFPRP, the “shrunken log2 fold change” value was -0.12.

Take RRIRERPPRLPRPRPRPDITPRP: the “shrunken log2 fold change” value was found to be 3.39.

For the sequence RRIRWRPPRLPRPRPRPQNKPRP, the “shrunken log2 fold change” value is -0.536.

For RRIRPRPPRLPRPRPRPKGIPRP, the “shrunken log2 fold change” value is -0.0606.

Turning to RRIRYRPPRLPRPRPRPFMIPRP, the “shrunken log2 fold change” value is -1.21.

Consider RRIRCRPPRLPRPRPRPTWEPRP, for which the “shrunken log2 fold change” value is -0.0631.

For RRIRARPPRLPRPRPRPNHAPRP, the “shrunken log2 fold change” value came to 0.209.

With RRIRVRPPRLPRPRPRPNTPPRP, the “shrunken log2 fold change” value is -0.0576.

As for RRIRFRPPRLPRPRPRPEIDPRP, the “shrunken log2 fold change” value was found to be 0.0823.

As for RRIRGRPPRLPRPRPRPEMYPRP, the “shrunken log2 fold change” value turned out to be 0.837.

Turning to RRIRRRPPRLPRPRPRPMSFPRP, the “shrunken log2 fold change” value is -0.0277.

As to RRIRIRPPRLPRPRPRPLICPRP, the “shrunken log2 fold change” value is -0.738.

On to RRIRDRPPRLPRPRPRPPFQPRP, for which the “shrunken log2 fold change” value worked out at 0.193.

Turning to RRIRCRPPRLPRPRPRPYDKPRP, the “shrunken log2 fold change” value is -0.985.

RRIRTRPPRLPRPRPRPAMYPRP: the “shrunken log2 fold change” value is -0.106.
